The record followed here is US20220110894A1 (ACCUBIT LLC BIOTECHNOLOGY, published 2022).

Series [1] deals with the molecule itself. Kind of series: SEC, self-association into poly-rIgA1. Background: In gel filtration, larger molecules generally elute earlier.
Series [2] deals with the molecule itself. Kind of series: SEC, non-reducing SDS-PAGE and TEM; self-association of rIgA duplexes into poly-rIgA. The method, then: Before running on SEC, samples were treated with the drugs at indicated concentrations at 37° C. for one hour.
(§1) In the meantime, the SEC column was also equilibrated with PBS supplemented with the reducing agent at the same concentration. For running SEC, 100 μL of the recombinant IgA (concentration varies between 1 mg/mL and 8 mg/mL) or purified native human IgA1 (˜1 mg/mL) was loaded to the column and UV absorption was recorded following elution. Recombinant IgA typically formed two elution peaks: a minor peak of ˜800 kDa poly-rIgA followed by a major peak of ˜170 kDa of monomeric rIgA. The ratios between poly-rIgA and mono-rIgA were calculated as between the corresponding areas under the curve (AUC), and the treatment effect of the thiol agents was judged by the reduction of the poly-rIgA level with a compensatory increase of the mono-rIgA content.
To further investigate specific cysteine residue(s) involved in IgA complexes, expression vectors were constructed to produce recombinant IgA (rIgA) Fc segments of rat and human sequences (FIG. 2, part A) as discussed above. Rat IgA analogs were expressed in BL21 DE3 strain of E. coil and recombinant protein were purified from the bacterial lysate using Histrap HP columns (GE Healthcare) by running fast protein liquid chromatography (FPLC). […]

Series [3] deals with the molecule itself. In words: SEC, self-association into poly-rIgA. Here is the method:
as §1
Considering that the fragment contained Cys311 and Cys471 that, in the absence of J-chain and SC, were in their free forms and available for connecting other rIgA units, mutagenesis studies were conducted of these two cysteines. Cys311 and Cys471 were either individually, or together, mutated to serine (S) as discussed above. […] By examining the SEC traces of these mutants, it was noticed that, while the monomers of all variants appeared the same, there were dramatic differences in the poly-rIgA contents. […] Meanwhile, C311S-alone still had poly-rIgA contents, albeit eluted at a different time in SEC than the wild-type protein (FIG. 3, part F). […]

Substitutions are numbered along the chain they refer to. Names may count otherwise.

B1: human rIgA1-Fc (human IgA1-Fc CH2-CH3-TP) (other)
chain: SCCHPRLSLHRPALEDLLLGSEANLTCTLTGLRDASGVTFTWTPSSGKSAVQGPPERDLCGCYSVSSVLPGCAEPWNHGKTFTCTAAYPESKTPLTATLSKSGNTFRPEVHLLPPPSEELALNELVTLTCLARGFSPKDVLVRWLQGSQELPREKYLTWASRQEPSQGTTTFAVTSILRVAAEDWKKGDTFSCMVGHEALPLAFTQKTIDRLAGKPTHVNVSVVMAEVDGTCY
notes: Produced in HEK293 cells, secreted; also called hu-rIgA; wild-type rIgA1; not shown: 6xHis-tag at the N-terminus after the IL-2 signal peptide (secreted)
On to B1, for which the binding result in series [1] was “binds”.

B2: wild-type rat IgA-Fc segment of CH2-CH3-TP (recombinant rat rIgA) (other)
chain: SCSLVCRPRLSLQRPALEDLLLGSEASLTCTLRGLKEPTGAVFTWQPTTGKDAVQKEAVQDSCGCYTVSSVLPGCAERWNNGETFTCTATHPEFETPLTGEIAKVTENTFPPQVHLLPPPSEELALNELVSLTCLVRGFNPKDVLVRWLQGNEELPSESYLVFEPLREPGEGAITYLVTSVLRVSAETWKQGAQYSCMVGHEALPMSFTQKTIDRLSGKPTNVNVSVIMSEGDGICY
notes: Expressed in E. coli BL21 DE3; Two chains form a duplex called mono-rIgA; poly-rIgA is its disulfide-linked self-aggregate; also called mono-rIgA; poly-rIgA; not shown: N-terminal 6xHis-tag from the PET30a vector
With B2, in series [2], the binding result is reported as “binds”.

B3: rat rIgA C311S single mutant (other)
chain: B2 chain with C75S
notes: also called C311S-alone; not shown: N-terminal 6xHis-tag from the PET30a vector
As to B3, in series [3], the binding result is given as “binds”.
